Biological target: angiogenin H114A (hAng, RNase 5) (Homo sapiens, UniProt P03950 25-147, H138A)
Assay: X-ray crystallography; sequence-independent backbone contacts except Arg24 (C38, C32); RNA does not reach active site; crystals at 277 K; Complex: 20 mM Tris pH 8.0, 120 mM NaCl, on ice 30 min, RNA:protein 1.2:1; crystallization reservoir 200 mM NaCl, 20% PEG 6000, 100 mM HEPES pH 7.0, 277 K
Conditions: protein: recombinant; tags: none stated (pET-26b(+)); chain copies: 2; self-duplex of 2 identical strands, blunt; designed as stem-loop but duplex in crystal

Sequence of angiogenin H114A (hAng, RNase 5) (P03950 25-147 H138A): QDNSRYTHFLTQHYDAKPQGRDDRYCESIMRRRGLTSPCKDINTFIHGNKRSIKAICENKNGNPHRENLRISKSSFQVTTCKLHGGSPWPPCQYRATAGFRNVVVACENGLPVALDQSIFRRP

B1: N19-RNA duplex (dsRNA)
RNA 1: GCCCGCCUGUCACGCGGGC
RNA 2: GCCCGCCUGUCACGCGGGC
Does B1 bind?
Result: binds
